The values below come from US8063012B2, “Neuroprotective peptide inhibitors of AP-1 signaling and uses therefor” (Phylogica Limited, priority 2006, dated 2011).

The subject of experiment [1] is neurons around the lesion in the somatosensory cortex. The experiment can be described thus: Acute cortical injury (focal traumatic brain injury), immunoreactivity in perilesion area. The class given is in vivo. Particulars: acute cortical injury of rat brain tissue in situ. The procedure:
The ability of AP-1 signaling-inhibitory peptides to inhibit neuronal apoptosis was assessed by loss of MAP2 immunoreactivity in a focal model of traumatic brain injury (Chung et al., J. Neuroscience 23, 3336-3342, 2003; King et al., Neuropathol Appl Neurobiol. 27, 115-126, 2001).
Rats were subjected to acute cortical injury as previously described by Chung et al., J. Neuroscience 23, 3336-3342 (2003) and King et al., Neuropathol Appl Neurobiol. 27, 115-126 (2001). Briefly, male 240 g Hooded-Wistar rats were deeply anaesthetized using Isofluorane (2-3%) and were given an analgesic (Meloxycam, […]), by subcutaneous injection. Animals were immobilized in a Stoelting stereotactic frame, and a 21 gauge blunt Hamilton syringe was inserted into the Par1 region of the somatosensory cortex to a depth of 2 mm and was left in place for 10 minutes. Then, 0.5 μl of 5 μM peptide was administered through the syringe at a rate of 0.05 μl/min. Peptide (10 μl) was applied to 1 mm^2 of Gelfoam, which was implanted before suturing. At 1 day post-injury (PI), rats were deeply anaesthetized with sodium pentobarbital (60 mg/kg), then perfused transcardially with a 4% paraformalydehyde and 4% sucrose fixative solution in 0.01M PBS. Brains were removed and cryoprotected in 18% and 30% sucrose solutions, respectively and 40 μm coronal sections were collected serially through the injury site for immunohistochemical labelling. All animal procedures were approved by the University of Tasmania Animal Ethics Committee (Permit A008878).
Sections were labelled with Nissl Red, Nuclear Yellow and anti-MAP2 to allow a quantitative assessment of neuronal loss around the lesion. Sections from the lesion centre and 200 μm anterior and posterior to the centre of the injury, at layer III of the neocortex were included in the analysis and the area of MAP2 loss was scored by blinded observers. Three sections from each of three animals were examined for each treatment and significance assessed by ANOVA and post-hoc comparison (Tukey test).
All data are presented as mean±standard error. […]

In experiment [2] the test system is AP-1 luciferase reporter in K562/AP1-Luc cells. As to the kind of experiment: Luciferase reporter gene assay of AP-1 dependent transcriptional activity. In kind it is cell-based. Particulars: pcDNA3-peptide transfection, 48 hours, normalised to renilla, vs pcDNA3 vector. As to the method: Phylomer™ peptides that inhibit an AP-1 complex formation as described in Example 1 were tested for their ability to decrease AP-1 controlled reporter expression (since Jun dimers are AP-1 moieties). A transient transfection assay in which the expression of each clone was plasmid driven was employed, thereby avoiding the synthesis of large numbers of peptides.
The K562 cell line was stably-transfected with the AP-1 luciferase reporter (AP1-Luc) of the Mercury Pathway Profiling kit (Clontech, U.S.A.), and the clonal cell line K562/AP1-Luc was established. In 6-well tissue culture plate format, K562/AP1-Luc cells were transfected with either pcDNA3 control, pcDNA3-JunDN (a dominant negative mutant of c-Jun), or pcDNA3-peptide, using Lipofectamine2000 (Life Technologies) according to manufacturer's instructions. Transfection reactions were incubated for 48 hours, cells collected and protein lysates extracted for luciferase assay according to Mercury Pathway Profiling kit and associated protocols.
Luciferase assays were performed in independent triplicates, and results for each peptide subjected to statistical analysis (SPSS software package) to determine if they were different to JunDN (positive control for AP-1 inhibition) or pcDNA-3 (negative control for AP-1 inhibition).
All AP-1 luciferase values were normalised to the renilla expression from a cotransfection control. Under these experimental conditions, approximately 30% of Phylomer™ peptides decreased AP-1 reporter activity by at least 50% when compared to the vector-only control (i.e., pcDNA3 vector). More particularly, the peptides designated PYC35, PYC36, PYC38/39 and PYC41 reduced AP-1 reporter activity to approximately 35%, 44%, 47% and 48%, respectively of the level observed for the control sample.

In experiment [3] the target is T1, interaction between JUN1 and JunZ (c-Jun dimerization) (Homo sapiens, UniProt P05412).
T1 construct: Partial fragments of c-Jun i.e., JunZ (774-927 bp) and Jun1 (558-1002 bp); expressed in transfected cells; host or cells: Saccharomyces cerevisiae strain PRT480, mated with library strain PRT51
T1 sequence (P05412 259-309 limits assumed): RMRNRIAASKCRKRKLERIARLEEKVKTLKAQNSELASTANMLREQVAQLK
T1 sequence (P05412 187-331 limits assumed): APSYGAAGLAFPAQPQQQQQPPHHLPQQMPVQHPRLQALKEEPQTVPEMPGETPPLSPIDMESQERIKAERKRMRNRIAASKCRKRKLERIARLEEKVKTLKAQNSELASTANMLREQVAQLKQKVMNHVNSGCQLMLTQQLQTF
The experiment can be described thus: Reverse-2-hybrid screening for inhibition of c-Jun dimerization in yeast. Particulars: for yeast survival on media for counter-selection against AP-1 complex formation viz. c-Jun dimerization: initial reverse-two-hybrid screen, clones expressed from pYTB3; for recapitulation of the disruption phenotype: plasmid clones rescued and re-transformed, two assays. The class given is cell-based. The text has this: The yeast two hybrid system described by Vidal.M., In: The Yeast Two Hybrid System (eds. P. Bartel and S. Fields), Oxford University Press, New York (1997), was modified to add another counter selectable marker (CYH2) and to allow flexible titration of stringency by adjustment of sugar concentrations in the screening media.
Partial fragments of c-Jun i.e., JunZ (774-927 bp) and Jun1 (558-1002 bp), were cloned into yeast two-hybrid vectors pDD (a kanamycin-resistant variant of pGilda bait vector) and pJFK (pYesTrp prey vector (Invitrogen) modified by replacing the TRP1 yeast selection gene with HIS5), respectively, before co-transforming into Saccharomyces cerevisiae strain PRT480 (MATα, his3, trp1, ura3, 4 LexA-LEU2, lys2::3 cIop-LYS2, CAN^R, CYH2^R, ade2::2 LexA-CYH2-ZEO, his5::2 LexA-URA3-G418) using a standard lithium-acetate based chemical transformation protocol.
The Phylomer™ peptide library was transformed into S. cerevisiae strain PRT51 (MATα, his3, trp1, ura3, 6 LexA-LEU2, lys2::3 cIop-LYS2, CYH2^R, ade2::G418-pZero-ade2, met15::Zeo-pBLUE-met15, his5::hygro), using a high-efficiency lithium acetate-based chemical transformation protocol, slightly modified to maximize the number of transformants.
Bait/prey plasmid containing PRT480 haploids (10^8 cells) were mated with the Phylomer™ library (10^7 c.f.u.) according to a liquid mating protocol for pretransformed libraries (Clontech, USA), and plated to HW^− minimal media (minimal media lacking histidine and tryptophan) to select for diploids. These plates were scraped after 2 days incubation at 30° C., and the cells were washed, resuspended 1:1 (v/v) in yeast freezing solution (65% v/v glycerol, 0.1M MgSO4, 25 mM Tris-Cl pH 8.0), and frozen at −80° C. in 1 ml aliquots.
To select peptides that block formation of an AP-1 complex requiring the interaction between JUN1 and JunZ, about 1.5×10^7 c.f.u Jun/Phylomer™ diploids were thawed and outgrown overnight in HW^− to achieve log-phase growth. The following day, 4×10^7 cells were plated onto counter-selective media: HWU^− (lacking histidine, tryptophan and uracil), containing supplements of 0.02% galactose (gal), 2% raffinose (raff), 0.2 μg/ml uracil, 0.06% (w/v) 5-Fluoroorotic acid (FOA), 5 μg/ml cycloheximide. These plates were incubated for 7 days, then colonies were picked to HWU^− 0.02% gal, 2% raff, and then to HWL^− (lacking histidine, tryptophan and leucine) 0.02% gal, 2% raff to confirm blocking phenotype.
These included transformants comprising the clones designated PYC19 [DNA sequence set forth in SEQ ID NO: 26; encoded amino acid sequence set forth in SEQ ID NO: 27 (with FLAG epitope) and 28 (without FLAG epitope)]; PYC35 [DNA sequence set forth in SEQ ID NO: 34; encoded amino acid sequence set forth in SEQ ID NO: 35 (with FLAG epitope) and 36 (without FLAG epitope)]; PYC36 [DNA sequence set forth in SEQ ID NO: 43; encoded amino acid sequence set forth in SEQ ID NO: 44 (with FLAG epitope) and 45 (without FLAG epitope)]; PYC38/39 [DNA sequence set forth in SEQ ID NO: 52; encoded amino acid sequence set forth in SEQ ID NO: 53 (with FLAG epitope) and 54 (without FLAG epitope)]; and PYC41 [DNA sequence set forth in SEQ ID NO: 60; encoded amino acid sequence set forth in SEQ ID NO: 61 (with FLAG epitope) and 62 (without FLAG epitope)].
Subsequently, the individual plasmid clones were rescued from the yeast and re-transformed to confirm the disruption phenotype; 63% of the primary “hits”, including PYC 19, PYC35, […], PYC38/39 and PYC41, were positive in two assays for recapitulation of the phenotype.

On to “PYC35: Phylomer clone; encoded amino acid sequence SEQ ID NO: 35 (with FLAG epitope) and 36 (without FLAG epitope) (AYQSIRSGGIESSSKRER; PYC35L peptide)”, for which, in experiment [1], the “astrogliosis as determined by glial fibrillary acidic protein immunoreactivity” value is listed as “reduced astrogliosis”, the “loss of neurons as determined by MAP2 immunoreactivity” value is recorded as “reduced loss of neurons” and the “microglial activation as determined by ferritin immunoreactivity” value is “reduced microglial activation”. The “AP-1 reporter activity, of the level observed for the control sample” value in experiment [2] is on record as “approximately 35%”. For the same substance, in experiment [3], the “yeast survival on media for counter-selection against AP-1 complex formation viz. c-Jun dimerization” value is “allowed yeast survival” and the “recapitulation of the disruption phenotype” value is recorded as “positive”.
As for “PYC41: Phylomer clone; encoded amino acid sequence SEQ ID NO: 61 (with FLAG epitope) and 62 (without FLAG epitope) (VSINQEHHRLLPL; PYC41L peptide)”, the “AP-1 reporter activity, of the level observed for the control sample” value in experiment [2] is ~48%. Besides, in experiment [3], the “yeast survival on media for counter-selection against AP-1 complex formation viz. c-Jun dimerization” value is “allowed yeast survival” and the “recapitulation of the disruption phenotype” value is listed as “positive”.
For “PYC36: Phylomer clone; encoded amino acid sequence SEQ ID NO: 44 (with FLAG epitope) and 45 (without FLAG epitope) (GLQGRRRQGYQSIKP; PYC36L peptide)”, in that order: ~44%, “allowed yeast survival” and “positive”.
For “PYC38/39: Phylomer clone; encoded amino acid sequence SEQ ID NO: 53 (with FLAG epitope) and 54 (without FLAG epitope) (GLQGRRQPGQQPQGRWSGRALPAHR; PYC38/39L peptide)”, in that order: ~47%, “allowed yeast survival” and “positive”.
